Source: patent US20050232920A1

Assays:
[1] = molecular target: dog factor D (in dog serum) (dog); assay: cell-based or functional assay; conditions: scale: times less effective than on human factor D
[2] = molecular target: factor D purified from human serum (human) (UniProt P00746); assay: cell-based or functional assay
[3] = molecular target: factor D purified from human serum (human) (UniProt P00746); assay: SPR (BIAcore), MAb captured by rabbit anti-mouse IgG, factor D as analyte
[4] = molecular target: factor D purified from human serum (human) (UniProt P00746); assay: SPR (BIAcore), factor D amine-coupled to the chip, MAb 166-32 as analyte

Chain of UniProt P00746 (P00746 26-253 N180D): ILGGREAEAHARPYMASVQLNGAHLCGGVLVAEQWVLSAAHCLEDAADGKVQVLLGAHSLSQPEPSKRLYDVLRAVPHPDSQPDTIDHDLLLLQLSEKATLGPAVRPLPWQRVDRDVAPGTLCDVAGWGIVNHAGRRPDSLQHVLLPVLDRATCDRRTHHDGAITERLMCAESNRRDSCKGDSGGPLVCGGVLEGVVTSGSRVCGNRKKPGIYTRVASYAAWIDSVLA

Kd [3]: < 0.1 nM | koff [3]: 0.00011 s⁻¹ | kon [3]: > 1e+06 M⁻¹ s⁻¹ | Kd [4]: 0.16 nM | koff [4]: 7.6e-05 s⁻¹ | kon [4]: 460000 M⁻¹ s⁻¹
Substance: MAb 166-32 (antibody)
neutralization of factor D in hemolytic assays [1]: > 10 | alternative complement activity of plasma from extracorporeal circuits (hemolysis of rabbit red blood cells) (molar ratio (MAb: factor D)) [2]: 1.5 | factor D dependent hemolysis of unsensitized rabbit RBCs (factor D depleted human serum with purified factor D added) [2]: 0.3 µg/mL | factor D dependent hemolysis of unsensitized rabbit RBCs: molar ratio for inhibition (molar ratio (MAb 166-32 to factor D)) [2]: 0.5
